Source: paper PMC7948506

Experiments:
[1] = target: Glycine max (soybean) heme oxygenase-1 (GmHO-1) (Glycine max (soybean)); assay: ITC; 800 uM Fd in the syringe into 40 uM apo-GmHO-1 (no heme) in the cell; 25 °C; 20 mM Tris-HCl pH 7.0, 20 mM NaCl; one set of sites model; single measurement
[2] = target: Glycine max (soybean) heme oxygenase-1 (GmHO-1) (Glycine max (soybean)); assay: ITC; 800 uM Fd in the syringe into 40 uM holo-GmHO-1 (heme bound) in the cell; 25 °C; 20 mM Tris-HCl pH 7.0, 20 mM NaCl; one set of sites model; single measurement

Kd [1]: 14.7 µM | dH [1]: 3.3 kcal/mol | stoichiometry N [1]: 1 | Kd [2]: 5.3 µM | dH [2]: 2.6 kcal/mol | stoichiometry N [2]: 1
Substance: soybean ferredoxin (Fd) (natural protein)
